Source: patent publication US20250326839A1 (VIGIL NEUROSCIENCE, published 2025)

T1: human TREM2 (human, UniProt Q9NZC2 19-174, limits assumed)
T1 construct: also called triggering receptor expressed on myeloid cells 2
T1 sequence: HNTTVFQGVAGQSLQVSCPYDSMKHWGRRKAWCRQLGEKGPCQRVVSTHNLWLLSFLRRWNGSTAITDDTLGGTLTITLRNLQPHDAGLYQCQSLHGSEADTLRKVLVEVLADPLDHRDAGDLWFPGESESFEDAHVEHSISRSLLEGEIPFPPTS


Tests used:
[1] = biological target: T1, human TREM2; assay: 2nd screen, 2 nM
[2] = biological target: T1, human TREM2; assay: 2nd screen, 10 nM
[3] = biological target: T1, human TREM2; assay: 1st screen, 10 nM Ab
[4] = biological target: T1, human TREM2; assay: 2nd screen, 100 nM
[5] = biological target: T1, human TREM2; assay: 1st screen, 110 nM Ab

Binder | Binding Signal [1] | Binding Signal [2] | Binding Signal [3] | Binding Signal [4] | Binding Signal [5]
V1 (antibody, V domains shown, also called 6E7 variant V1) VH: EVQLVQSGAEVKKPGESLKISCKGSGYSFTSSWIAWVRQMPGKGLEWMGIIYPGDSDTRYSPSFQGQVTISADKSISTAYLQWSSLKASDTAMYFCARSRTFYYDSSDYFDYWGQGTLVTVSS VL: DIQMTQSPSSVSASVGDRVTITCRASQGISSWLAWYQQKPGKAPKLLIYAASSLTNGVPSRFSGSGSGTDFTLTISSLQPEDFATYFCQQADSYPRTFGQGTKLEIK | 1.29 fold over 6E7 parental antibody | 1.92 fold over 6E7 parental antibody | 1.68 fold over 6E7 parental antibody | – | –
V4 (antibody, V domains shown, also called 6E7 variant V4) VH: EVQLVQSGAEVKKPGESLKISCKGSGYSFGSYWIAWVRQMPGKGLEWMGIIYPGDSDTRVSPSFQGQVTISADKSISTAYLQWSSLKASDTAMYFCARSRTFYYDSSDYFDYWGQGTLVTVSS VL: DIQMTQSPSSVSASVGDRVTITCRASQGISSWLAWYQQKPGKAPKLLIYAASRLQNGVPSRFSGSGSGTDFTLTISSLQPEDFATYFCQQADSYPRTFGQGTKLEIK | 5.88 fold over 6E7 parental antibody | 5.51 fold over 6E7 parental antibody | 6 fold over 6E7 parental antibody | – | –
V13 (antibody, V domains shown, also called 6E7 variant V13) VH: EVQLVQSGAEVKKPGESLKISCKGSGYSFGSYWIAWVRQMPGKGLEWMGIIYPGDSDTRYSASFQGQVTISADKSISTAYLQWSSLKASDTAMYFCARGRTFYYDSSDYFDYWGQGTLVTVSS VL: DIQMTQSPSSVSASVGDRVTITCRASQGISSWLAWYQQKPGKAPKLLIYAASSLQGGVPSRFSGSGSGTDFTLTISSLQPEDFATYFCQQADSMPRTFGQGTKLEIK | 1.15 fold over 6E7 parental antibody | 1.35 fold over 6E7 parental antibody | 1.31 fold over 6E7 parental antibody | – | –
V90 (antibody, V domains shown, also called 6E7 variant V90; LV-206/HV-206) VH: EVQLVQSGAEVKKPGESLKISCKGSGYSFTSEWIAWVRQMPGKGLEWMGIIYPGDSDTRYSPSFQGQVTISADKSISTAYLQWSSLKASDTAMYFCARQRTFYYDSSDYFDYWGQGTLVTVSS VL: DIQMTQSPSSVSASVGDRVTITCRASQGISRWLAWYQQKPGKAPKLLIYAASSLQNGVPSRFSGSGSGTDFTLTISSLQPEDFATYFCQQADSFPRTFGQGTKLEIK | – | – | – | 0.36 fold over 6E7 parental antibody | 0.33 fold over 6E7 parental antibody
V94 (antibody, V domains shown, also called 6E7 variant V94) VH: EVQLVQSGAEVKKPGESLKISCKGSGYSFTSYWIAWVRQMPGKGLEWMGIIYPGDSDTRYSPSFQGQVTISADKSISTAYLQWSSLKASDTAMYFCARQRTFYYDSSDYFDYWGQGTLVTVSS VL: DIQMTQSPSSVSASVGDRVTITCRASQGISSWLAWYQQKPGKAPKLLIYAAASLQNGVPSRFSGSGSGTDFTLTISSLQPEDFATYFCQQADSFPRTFGQGTKLEIK | – | – | – | 0.87 fold over 6E7 parental antibody | 0.31 fold over 6E7 parental antibody
V91 (antibody, V domains shown, also called 6E7 variant V91) VH: EVQLVQSGAEVKKPGESLKISCKGSGYSFTSYWIAWVRQMPGKGLEWMGIIYPDDSDTRYSPSFQGQVTISADKSISTAYLQWSSLKASDTAMYFCARQRTFYYDSSDYFDYWGQGTLVTVSS VL: DIQMTQSPSSVSASVGDRVTITCRASQGISSWLAWYQQKPGKAPKLLIYAASSLQNGVPSRFSGSGSGTDFTLTISSLQPEDFATYFCQQADSFPRTFGQGTKLEIK | – | – | – | 0.61 fold over 6E7 parental antibody | 0.25 fold over 6E7 parental antibody
V81 (antibody, V domains shown, also called 6E7 variant V81) VH: EVQLVQSGAEVKKPGESLKISCKGSGYSFTSYWIAWVRQMPGKGLEWMGIIYPGDSDTRYSPSFQGQVTISADKSISTAYLQWSSLKASDTAMYFCARQRTFYYDSSDYFDYWGQGTLVTVSS VL: DIQMTQSPSSVSASVGDRVTITCRASQGISSLLAWYQQKPGKAPKLLIYAASSLQNGVPSRFSGSGSGTDFTLTISSLQPEDFATYFCQQADSFPRTFGQGTKLEIK | – | – | – | 0.23 fold over 6E7 parental antibody | 0.17 fold over 6E7 parental antibody
V5 (antibody, V domains shown, also called 6E7 variant V5) VH: EVQLVQSGAEVKKPGESLKISCKGSGYSFTSYWIAWVRQMPGKGLEWMGTIYPGDSDTRYSPSFQGQVTISADKSISTAYLQWSSLKASDTAMYFCARQRTFYYDSSDYFDYWGQGTLVTVSS VL: DIQMTQSPSSVSASVGDRVTITCRASQGISSWLAWYQQKPGKAPKLLIYAASSLQNGVPSRFSGSGSGTDFTLTISSLQPEDFATYFCQQADSHPRTFGQGTKLEIK | 1.25 fold over 6E7 parental antibody | 2.84 fold over 6E7 parental antibody | 2.73 fold over 6E7 parental antibody | – | –
V80 (antibody, V domains shown, also called 6E7 variant V80) VH: EVQLVQSGAEVKKPGESLKISCKGSGYSFTSYWIAWVRQMPGKGLEWMGIIYPGDSDTRYSPSFQGQVTISADKSISTAYLQWSSLKASDTAMYFCARQRNFYYDSSDYFDYWGQGTLVTVSS VL: DIQMTQSPSSVSASVGDRVTITCRASQGISSWLAWYQQKPGKAPKLLIYAASSLQNGVPSRFSGSGSGTDFTLTISSLQPEDFATYFCQQADSFPRTFGQGTKLEIK | – | – | – | 0.5 fold over 6E7 parental antibody | 0.59 fold over 6E7 parental antibody
V14 (antibody, V domains shown, also called 6E7 variant V14) VH: EVQLVQSGAEVKKPGESLKISCKGSGYSFGSYWIAWVRQMPGKGLEWMGIIYPGDQDTRYSPSFQGQVTISADKSISTAYLQWSSLKASDTAMYFCARGRTFYYDSSDYFDYWGQGTLVTVSS VL: DIQMTQSPSSVSASVGDRVTITCRASQGISSWLAWYQQKPGKAPKLLIYAASRLQNGVPSRFSGSGSGTDFTLTISSLQPEDFATYFCQQADSFPRTFGQGTKLEIK | 2.57 fold over 6E7 parental antibody | 4.64 fold over 6E7 parental antibody | 4.71 fold over 6E7 parental antibody | – | –
V83 (antibody, V domains shown, also called 6E7 variant V83) VH: EVQLVQSGAEVKKPGESLKISCKGSGYSFTSYWIAWVRQMPGKGLEWMGIIYPGDSDTRYSPSFQGQVTISADKSISTAYLQWSSLKASDTAMYFCARQRTFYYDSSDYFDYWGQGTLVTVSS VL: DIQMTQSPSSVSASVGDRVTITCRASQGISSWLAWYQQKPGKAPKLLIYAASSLQNGVPSRFSGSGSGTDFTLTISSLQPEDFATYFCQQAVSFPRTFGQGTKLEIK | – | – | – | 0.29 fold over 6E7 parental antibody | 0.2 fold over 6E7 parental antibody
V92 (antibody, V domains shown, also called 6E7 variant V92) VH: EVQLVQSGAEVKKPGESLKISCKGSGYSFTSYWIAWVRQMPGKGLEWMGIIYPGDSDTRYSPSFQGQVTISADKSISTAYLQWSSLKASDTAMYFCARQRTFHYDSSDYFDYWGQGTLVTVSS VL: DIQMTQSPSSVSASVGDRVTITCRASQGISSWLAWYQQKPGKAPKLLIYAASSLQNGVPSRFSGSGSGTDFTLTISSLQPEDFATYFCQQADSFPRTFGQGTKLEIK | – | – | – | 0.65 fold over 6E7 parental antibody | 0.22 fold over 6E7 parental antibody
V82 (antibody, V domains shown, also called 6E7 variant V82) VH: EVQLVQSGAEVKKPGESLKISCKGSGYSFTSYWIAWVRQMPGKGLEWMGIIYPGDSDTRYSPSFQGQVTISADKSISTAYLQWSSLKASDTAMYFCARQRTFYYDSSDYFDYWGQGTLVTVSS VL: DIQMTQSPSSVSASVGDRVTITCRASQGISSWLAWYQQKPGKAPKLLIYAGSSLQNGVPSRFSGSGSGTDFTLTISSLQPEDFATYFCQQADSFPRTFGQGTKLEIK | – | – | – | 0.79 fold over 6E7 parental antibody | 0.3 fold over 6E7 parental antibody
V2 (antibody, V domains shown, also called 6E7 variant V2) VH: EVQLVQSGAEVKKPGESLKISCKGSGSSFTSYWIAWVRQMPGKGLEWMGIIYPGDGDTRYSPSFQGQVTISADKSISTAYLQWSSLKASDTAMYFCARSRTFYYDSSDYFDYWGQGTLVTVSS VL: DIQMTQSPSSVSASVGDRVTITCRASQGISSWLAWYQQKPGKAPKLLIYAASSRQNGVPSRFSGSGSGTDFTLTISSLQPEDFATYFCQQADRFPRTFGQGTKLEIK | 2.23 fold over 6E7 parental antibody | 2.9 fold over 6E7 parental antibody | 2.55 fold over 6E7 parental antibody | – | –
V93 (antibody, V domains shown, also called 6E7 variant V93) VH: EVQLVQSGAEVKKPGESLKISCKGSGYSFTSYWIAWVRQMPGKGLEWMGIIYPGDSDTRYSPSFQGQVTISADKSISTAYLQWSSLKASDTAMYFCARQRTFYYDSSDYFDYWGQGTLVTVSS VL: DIQMTQSPSSVSASVGDRVTITCRASQGISGWLAWYQQKPGKAPKLLIYAASSLQNGVPSRFSGSGSGTDFTLTISSLQPEDFATYFCQQADSFPRTFGQGTKLEIK | – | – | – | 1.05 fold over 6E7 parental antibody | 0.35 fold over 6E7 parental antibody
V12 (antibody, V domains shown, also called 6E7 variant V12) VH: EVQLVQSGAEVKKPGESLKISCKGSGYEFTSYWIAWVRQMPGKGLEWMGIIYPGDSDVRYSPSFQGQVTISADKSISTAYLQWSSLKASDTAMYFCARGRTFYYDSSDYFDYWGQGTLVTVSS VL: DIQMTQSPSSVSASVGDRVTITCRASQGISSWLAWYQQKPGKAPKLLIYAASSLQRGVPSRFSGSGSGTDFTLTISSLQPEDFATYFCQQADSFPRTFGQGTKLEIK | – | 2.58 fold over 6E7 parental antibody | – | – | –
V3 (antibody, V domains shown, also called 6E7 variant V3; LV-101/HV-101) VH: EVQLVQSGAEVKKPGESLKISCKGSGYSFASYWIAWVRQMPGKGLEWMGIIYPGDSDTRYSPSFQDQVTISADKSISTAYLQWSSLKASDTAMYFCARGRTFYYDSSDYFDYWGQGTLVTVSS VL: DIQMTQSPSSVSASVGDRVTITCRASQGISSWLAWYQQKPGKAPKLLIYAASSRQNGVPSRFSGSGSGTDFTLTISSLQPEDFATYFCQQADRFPRTFGQGTKLEIK | 1.95 fold over 6E7 parental antibody | 2.24 fold over 6E7 parental antibody | 1.97 fold over 6E7 parental antibody | – | –
